According to article PMC8015787:

Substrate: O=CCO
Experiment: O2 consumption
Format: biochemical, Escherichia coli
Conditions: thiamin diphosphate (ThDP), Mg2+ active site; donor (and acceptor) substrate

B1: 1-deoxy-D-xylulose 5-phosphate synthase (DXPS) (Escherichia coli K-12) (protein)
chain: SFDIAKYPTLALVDSTQELRLLPKESLPKLCDELRRYLLDSVSRSSGHFASGLGTVELTVALHYVYNTPFDQLIWDVGHQAYPHKILTGRRDKIGTIRQKGGLHPFPWRGESEYDVLSVGHSSTSISAGIGIAVAAEKEGKNRRTVCVIGDGAITAGMAFEAMNHAGDIRPDMLVILNDNEMSISENVGALNNHLAQLLSGKLYSSLREGGKKVFSGVPPIKELLKRTEEHIKGMVVPGTLFEELGFNYIGPVDGHDVLGLITTLKNMRDLKGPQFLHIMTKKGRGYEPAEKDPITFHAVPKFDPSSGCLPKSSGGLPSYSKIFGDWLCETAAKDNKLMAITPAMREGSGMVEFSRKFPDRYFDVAIAEQHAVTFAAGLAIGGYKPIVAIYSTFLQRAYDQVLHDVAIQKLPVLFAIDRAGIVGADGQTHQGAFDLSYLRCIPEMVIMTPSDENECRQMLYTGYHYNDGPSAVRYPRGNAVGVELTPLEKLPIGKGIVKRRGEKLAILNFGTLMPEAAKVAESLNATLVDMRFVKPLDEALILEMAASHEALVTVEENAIMGGAGSGVNEVLMAHRKPVPVLNIGLPDFFIPQGTQEEMRAELGLDAAGMEAKIKAWLA
With B1 as the protein, how does the Km read?
Its Km is 920 ± 120 µM.
